For assay [1], the target named is T1, ATP-binding cassette transporter A1 (ABCA1) (Homo sapiens, UniProt O95477).
T1 construct: recombinant ABCA1 peptide (Abcam #ab125995), C-terminal domain 2085–2245aa
T1 sequence (O95477 2085-2245): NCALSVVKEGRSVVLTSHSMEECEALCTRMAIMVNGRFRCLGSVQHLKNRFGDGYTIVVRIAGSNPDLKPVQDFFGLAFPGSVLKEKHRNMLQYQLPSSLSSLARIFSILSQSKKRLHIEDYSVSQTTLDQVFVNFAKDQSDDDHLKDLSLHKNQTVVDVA
In words: SPR (Biacore […], immobilized ABCA1 C-terminal peptide on CM5 chip); also identified by NPOT in THP-1 extract.

Assay [2] concerns the target T2, recombinant human retinal dehydrogenase-1 (ALDH1A1) (human, UniProt P00352 1-501).
T2 construct: retinal dehydrogenase 1 (aldehyde dehydrogenase 1 family, member A1), human, recombinant; also called ALDHA1; aldehyde dehydrogenase 1 family, member A1
T2 sequence (looked up): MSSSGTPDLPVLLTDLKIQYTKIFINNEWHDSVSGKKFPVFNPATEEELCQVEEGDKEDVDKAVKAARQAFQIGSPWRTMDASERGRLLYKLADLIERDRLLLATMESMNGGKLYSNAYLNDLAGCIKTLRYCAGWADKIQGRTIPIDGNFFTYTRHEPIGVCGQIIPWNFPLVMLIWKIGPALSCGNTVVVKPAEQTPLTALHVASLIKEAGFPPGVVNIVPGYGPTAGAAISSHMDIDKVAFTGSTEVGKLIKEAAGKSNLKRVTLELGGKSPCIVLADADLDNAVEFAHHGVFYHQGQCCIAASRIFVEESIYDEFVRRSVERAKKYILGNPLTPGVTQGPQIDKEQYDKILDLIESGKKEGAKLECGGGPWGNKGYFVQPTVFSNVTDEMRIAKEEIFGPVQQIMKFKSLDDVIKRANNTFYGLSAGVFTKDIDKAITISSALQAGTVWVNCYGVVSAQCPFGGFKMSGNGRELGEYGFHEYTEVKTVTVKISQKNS
As to the kind of experiment: SPR; Biacore 3000; ABCA1 peptide immobilised on a CM5 chip by amine coupling; proteins dialysed against HBS-E (10 mM Hepes, 150 mM NaCl, 3 mM EDTA); ALDH1A1 injected at 6e-8 to 1e-6 M; 1:1 fit (Langmuir or drifting baseline). To be noted: both partners purified. On the technique in general: In SPR one partner is held on a chip, and binding of the other changes the refractive index at the surface.

Usually Kd stands for the free concentration of one partner at which half of the binding sites on the other are occupied at equilibrium, for simple one-to-one binding.

Molecule `CN1c2ccccc2C(=O)N2CCc3c([nH]c4ccccc34)C21` (stereo in doubt) [evodiamine] showed a dissociation constant (Kd) in assay [1] of 810 nM.

B1: recombinant ABCA1 peptide (Abcam #ab125995, covering C-terminal domain 2085-2245aa) (domain or fragment, UniProt O95477 2085-2245, looked up)
chain: T1 sequence (O95477 2085-2245)
notes: check the Abcam data sheet; source: bought: Abcam #ab125995, recombinant
For the molecule B1, in assay [2], the Ka is 1.25e+06 M⁻¹ and the Kd was found to be 803 nM.

The record behind these values is PMC6056500, “Novel interactomics approach identifies ABCA1 as direct target of evodiamine, which increases macrophage cholesterol efflux” (Scientific Reports, 2018).
